Data as given in the supplement of paper PMC12764529.
± gives the half width of the 95% confidence interval.

Key:
[1] = folding stability dG unfold from trypsin proteolysis; higher = more stable
In short: (§1)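 Designed mini-proteins (under 80 residues, no cysteine) in a PA-tagged cDNA display construct were digested with trypsin and chymotrypsin. Each protease was used at 11 concentrations (threefold dilutions) plus a no-protease condition, followed by sequencing. K50 was inferred by Bayesian fitting of sequencing counts, and unfolding free energy was derived against a sequence-predicted unfolded-state K50 and a shared folded-state K50, per protease or combined. Only designs with AlphaFold2 dimer inter-PAE above 15 were kept.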

[2] = folding stability dG unfold from chymotrypsin proteolysis; higher = more stable
In short: as §1

[3] = folding stability dG unfold (combined trypsin and chymotrypsin); higher = more stable
In short: as §1

Sequence	folding stability dG unfold [1]	folding stability dG unfold [2]	folding stability dG unfold [3]
SAGGSAKKPKPGRLFLRYEEPEKGEVVEAVLTVYPNNVVELEVRRPDGKPVPLEKALKLLKELGLLSAGGSA [r15_872_TrMRF]	1.54 ± 0.046 kcal/mol	2.12 ± 0.1 kcal/mol	1.86 ± 0.14 kcal/mol
SAGGSAKKTYIIKIPVKEIVVKDKKTGKYKPISAEELAKLLEEKTGLKVEIVEVKDGYIVIKVKEKSAGGSA [r15_55_TrROS_Hall]	2.26 ± 0.091 kcal/mol	2.96 ± 0.045 kcal/mol	2.74 ± 0.13 kcal/mol
SAGGSAKLSAEEIAKLLKKLFPEVKEIKVKVEVNGKLYEVKIKVEKVKKKEKKKVEGMSEEEKKKLSAGGSA [r15_156_TrROS_Hall]	2.06 ± 0.19 kcal/mol	2.33 ± 0.1 kcal/mol	2.35 ± 0.32 kcal/mol
SAGGSAKLTAEEIKKLPPNARIYFDKETGRVFIEVDGKLVVIEIDKETKEVKVVKVFPSKEALEKASAGGSA [r15_6_TrROS_Hall]	1.57 ± 0.054 kcal/mol	1.86 ± 0.1 kcal/mol	1.82 ± 0.12 kcal/mol
SAGGSAKLTIELVISDMSPEDAEIAAENIRIELIKKGIPEEEIENVDIKVIVAPVYLDEDNNLILGSAGGSA [r15_684_TrMRF]	0.533 ± 0.019 kcal/mol	0.657 ± 0.035 kcal/mol	0.694 ± 0.058 kcal/mol
SAGGSAKMTLIIKVSPEMTKEELEELARKLAEELNVKVEIEYDEETGLATVTIEKDGKKIEIIVERSAGGSA [r15_168_TrROS_Hall]	1.98 ± 0.083 kcal/mol	2.74 ± 0.094 kcal/mol	2.49 ± 0.12 kcal/mol
SAGGSAKMVLVKIKVEGMSVEEVKKLLEEAGAKVVKIDEEKKVIIVEVSPEKAEELAKKLGFEVEVSAGGSA [r15_731_TrROS_Hall]	3.36 ± 0.14 kcal/mol	3.42 ± 0.11 kcal/mol	3.45 ± 0.086 kcal/mol
SAGGSAKPEPIKIEIGPGGNRFKATFPNGDEADVDVVKDGDKTYLLITVTSPDGKPRPFKIPLEKLSAGGSA [r15_941_TrMRF]	1.76 ± 0.042 kcal/mol	2.24 ± 0.023 kcal/mol	2.1 ± 0.05 kcal/mol
SAGGSAKRYFIMIDIRYPGDGKEIYPLVIPIPPGEPISIEDILDEIGFPPENADNVDIEIHTFRAKSAGGSA [r15_665_TrROS]	1.56 ± 0.078 kcal/mol	1.57 ± 0.14 kcal/mol	1.51 ± 0.22 kcal/mol
SAGGSAKSIKAEELAKEIADLMQERNPNWRVEIEPQPGPGPMITVKIYHRDPNNGDQQPINTFTIRSAGGSA [r15_682_TrROS]	0.502 ± 0.099 kcal/mol	0.188 ± 0.15 kcal/mol	0.442 ± 0.15 kcal/mol
SAGGSAKTIKIWIPVKGMTPEMLEEIARDILEELGMKVDIEPHPGDGYIEVTFKLPGKDIEIIIPWSAGGSA [r15_168_TrROS]	2.04 ± 0.062 kcal/mol	3.04 ± 0.1 kcal/mol	2.61 ± 0.16 kcal/mol
SAGGSAKTKTITLKIKIVDPKTNKVYEFEIKIEVELTLDKNGKLTAKIKKIEIKAPKNSPLLKKLLSAGGSA [r15_258_TrROS_Hall]	2.57 ± 0.063 kcal/mol	3.18 ± 0.041 kcal/mol	2.68 ± 0.24 kcal/mol
SAGGSAKVIAVPSLEEALKLAEEAAKEGKDIVVLFPDNRLLVVEVKPAPDDKPVLKLKVFEIPPELSAGGSA [r15_761_TrMRF]	0.47 ± 0.049 kcal/mol	0.974 ± 0.072 kcal/mol	0.767 ± 0.15 kcal/mol
SAGGSAKWELSIWIPAPGMTPDKARELARDIAREFAQPGWKVKDIEVEPVNPDENVYRGTVTIEPPSAGGSA [r15_96_TrROS]	0.951 ± 0.04 kcal/mol	1.82 ± 0.11 kcal/mol	1.49 ± 0.13 kcal/mol
SAGGSALAEKAKELALEKGYDPVKVTYDPKTGTLTMTAKPPGGKEVKMTFTIDEDTITITTTPLTKSAGGSA [r15_561_JUSTAS]	0.996 ± 0.033 kcal/mol	2.95 ± 0.078 kcal/mol	2.49 ± 0.16 kcal/mol
SAGGSALDPDDLEKVTIEFMFYNPNGNLLYEMTLEIYPDDGVIKMEHKQRRPGEPQKVTMEFPFDPSAGGSA [r15_278_TrROS]	1.63 ± 0.29 kcal/mol	1.67 ± 0.18 kcal/mol	1.73 ± 0.28 kcal/mol
SAGGSALPALAERFPDAEIEPVGDDGTSVTYRFRFPGGDYLLVTVPFLPGTTEAVVDIEWVPRDALSAGGSA [r15_547_TrMRF]	1.68 ± 0.051 kcal/mol	2.628 ± 0.012 kcal/mol	2.35 ± 0.051 kcal/mol
SAGGSALPDIEVEELVRRLLELLEEDQPFRIVVFPPGGRWLTLDELLNVPAEEIPDLVVLVFVPDLSAGGSA [r15_144_TrMRF]	3.04 ± 0.091 kcal/mol	3.49 ± 0.06 kcal/mol	3.3 ± 0.088 kcal/mol
SAGGSALTLNDKSLIPKPFPKKKAIVDVAVPLPPNLTLEEALEVAEAIANNLLKAGKIDEATVAIYSAGGSA [r15_450_TrMRF]	-0.0583 ± 0.11 kcal/mol	0.151 ± 0.15 kcal/mol	0.108 ± 0.091 kcal/mol
SAGGSALVIKKVEPNKGYLVFESKEDDKPIVRVKLETLVAALEEDRIPPALRRLLAENPDQVFNPVSAGGSA [r15_359_TrMRF]	2.22 ± 0.12 kcal/mol	1.75 ± 0.25 kcal/mol	1.9 ± 0.21 kcal/mol
SAGGSALYIPPGTEHTVLIKLKDDDRYYEAKVTRVYPTSIEVEVEDPLTGEKKRYTINATDIELGDSAGGSA [r15_381_TrMRF]	2.14 ± 0.12 kcal/mol	2.24 ± 0.07 kcal/mol	2.18 ± 0.18 kcal/mol

Sequence	folding stability dG unfold [1]	folding stability dG unfold [2]	folding stability dG unfold [3]
SAGGSAMAIFTVTPPDGVPVTERYSFTTPEEVEAAFAAAKAALPPGTALSVTLVPEEEVAAGRPLLSAGGSA [r15_469_JUSTAS]	0.386 ± 0.027 kcal/mol	1.59 ± 0.043 kcal/mol	1.23 ± 0.034 kcal/mol
SAGGSAMEIEVEKNEDGTVTIRFRDKETGEEIEIEIEVEPGMTEEEVREKAEELAEELKKKGIEIESAGGSA [r15_1022_TrROS_Hall]	2.82 ± 0.19 kcal/mol	2.73 ± 0.19 kcal/mol	2.89 ± 0.23 kcal/mol
SAGGSAMETIELKLEDGSTLTIERDPENPNTLTITFEDGRKITVTADSAEEALKKALELAKEGKLPSAGGSA [r15_38_TrROS_Hall]	4.36 ± 0.33 kcal/mol	4.58 ± 0.16 kcal/mol	4.6 ± 0.17 kcal/mol
SAGGSAMIEEKLIEIPPIPVPYPDGSVQKVPVLVEETVELKPFIDPNTDKTSTAKTVTKRKVIFPSSAGGSA [r15_884_JUSTAS]	-0.255 ± 0.21 kcal/mol	0.76 ± 0.084 kcal/mol	0.379 ± 0.15 kcal/mol
SAGGSAMIELEIKLPKEEAEKIAEELAKKLAEELGLEVKVVDVEIEYDPETDEVTIRVKIEVEPEPSAGGSA [r15_70_TrROS_Hall]	2.68 ± 0.15 kcal/mol	1.98 ± 0.1 kcal/mol	2.48 ± 0.24 kcal/mol
SAGGSAMIITFDKKTGKLTIYNKETGKKIEAEITKIEKIPEDKKYVKIKIKNKKTKKEFEFIFKIKSAGGSA [r15_209_TrROS_Hall]	2.57 ± 0.16 kcal/mol	4.39 ± 0.1 kcal/mol	3.81 ± 0.38 kcal/mol
SAGGSAMIVTEDPNGVLTTTENGKVTTTTVTPVPRPDPFSDKTFTEYVVTTTTTPVAPSPITPNTLSAGGSA [r15_515_JUSTAS]	1.26 ± 0.032 kcal/mol	-0.0422 ± 0.081 kcal/mol	0.823 ± 0.046 kcal/mol
SAGGSAMKEIEINGYKVRIVKIDEKTGKITIYLYPNASEEMKEKVAELLKELGFEIEVEEVSPEELSAGGSA [r15_570_TrROS_Hall]	3.4 ± 0.28 kcal/mol	3.53 ± 0.14 kcal/mol	3.44 ± 0.16 kcal/mol
SAGGSAMKIKPGETVTIKVKNKETGEWFEAKIVKVDEEKGEIEIEVEVNGKKYTFTIPAEDIEIVESAGGSA [r15_381_TrROS_Hall]	1.87 ± 0.33 kcal/mol	3.12 ± 0.077 kcal/mol	2.89 ± 0.29 kcal/mol
SAGGSAMKIKRDNGKVRIEIDFPPEMKNPERMLMNIRSAINENPNKPIKVTMPPGHREWAKRLLKESAGGSA [r15_89_TrROS]	0.219 ± 0.19 kcal/mol	-0.686 ± 0.44 kcal/mol	-0.248 ± 0.24 kcal/mol
SAGGSAMKITITVEKKEDGTYRVTIEIDGKKIEIEMSVEDLKKKLEELAKELFPDKPIKVEVKPVPSAGGSA [r15_925_TrROS_Hall]	2.87 ± 0.13 kcal/mol	4.13 ± 0.36 kcal/mol	3.83 ± 0.2 kcal/mol
SAGGSAMKITLKPDGTLEIELPDGVKITITRNANGEVTITITYPDGETKTFPAGMTLEQVLAELLASAGGSA [r15_371_TrROS_Hall]	3.56 ± 0.072 kcal/mol	3.3 ± 0.053 kcal/mol	3.42 ± 0.051 kcal/mol
SAGGSAMKKIPKENVEKVIEFTDKNGKKITIVYNKKTGKAYIFDKKTKKVIEIDMTEDEIKKLLKSSAGGSA [r15_810_TrROS_Hall]	1.1 ± 0.023 kcal/mol	2.13 ± 0.061 kcal/mol	1.89 ± 0.054 kcal/mol
SAGGSAMKKLTIELPDPDITPEEAEKRAREIAEKIAEGNYKVEEIKVEPVDPEKNVYRGTVIIKELSAGGSA [r15_96_JUSTAS]	0.64 ± 0.13 kcal/mol	0.365 ± 0.27 kcal/mol	0.507 ± 0.34 kcal/mol
SAGGSAMKLPKNVKITITKNKDGTVTITITYPDGKKITITMKIDKNGKLKFTKEQIKKLIKELAKKSAGGSA [r15_780_TrROS_Hall]	2.74 ± 0.089 kcal/mol	2.52 ± 0.082 kcal/mol	2.53 ± 0.22 kcal/mol
SAGGSAMKLTLKDKKGNTLFLEVEEKTSEDGTPYYEVKIYYPNTNKVEYAEVPVENLEEFAKKLADSAGGSA [r15_92_TrMRF]	3.21 ± 0.09 kcal/mol	3.31 ± 0.086 kcal/mol	3.25 ± 0.18 kcal/mol
SAGGSAMKVDPSTKVVTVTDPKTGKEYRVNLPDVPPEKGVEVKVDNGKVTVKTEEGVRVIPYSELKSAGGSA [r15_864_JUSTAS]	0.609 ± 0.044 kcal/mol	0.538 ± 0.12 kcal/mol	0.71 ± 0.097 kcal/mol
SAGGSAMKVRLEVEEEDGKLRVRLEVEVGPPVVRVEVEAEVEEVDGELVLKVTVKVELSPEALEALSAGGSA [r15_725_TrROS_Hall]	3.47 ± 0.22 kcal/mol	3.78 ± 0.11 kcal/mol	3.78 ± 0.15 kcal/mol
SAGGSAMKVYKIKLEFENEETGKRVEIEAEVVEVDGELYLVMKAKVVDEETGEEKEIEIVIKLPKESAGGSA [r15_960_TrROS_Hall]	2.48 ± 0.21 kcal/mol	2.27 ± 0.4 kcal/mol	2.31 ± 0.21 kcal/mol
SAGGSAMLKVTERTVEVEVFDEEGNPIGWRERKIVVEDPLSPEPRPPPPPVDPVLAAETLGADVLESAGGSA [r15_572_JUSTAS]	-0.0577 ± 0.14 kcal/mol	0.543 ± 0.21 kcal/mol	0.393 ± 0.14 kcal/mol
